Biological target: NtermRGS2-GFP-CIBN (R2helix-CIBN component of opto-RGS2, GFP-tagged)
Experiment: light-induced membrane translocation

Work on “CRY2-mCherry-(GGGGS)3-RGS2box (CRY2-R2box component of opto-RGS2)” yielded a τoff (time constant of dark reversion from the membrane) of 396 s and a τon (time constant of light-induced membrane translocation) of 19.7 s.

From article PMC6311707
